The source of these data is patent publication US20050038228A1.

For assay [1], the target named is anti-β1 adrenoceptor antibody in serum of patients with dilated cardiomyopathy (human). The experiment in a line: batch adsorption with γ-sterilized adsorbent and dilated cardiomyopathy patient serum; antibody left in the supernatant measured by ELISA on the β1-adrenoceptor second loop peptide. (In general: In an ELISA, binding on a coated surface is turned into a signal by an enzyme label.)

Assay [2] concerns the target IgG in healthy human serum (human). In words: batch adsorption as in Example 7 with γ-sterilized adsorbent and healthy human serum; IgG depletion from the supernatant.
Assay [3] addresses rheumatoid factor in serum of rheumatism patients (human). The experiment in a line: batch adsorption with γ-sterilized adsorbent: 100 µL adsorbent with 600 µL rheumatism patient serum, 37° C., 2 h; rheumatoid factor depletion from the supernatant.
The target in assay [4] is immune complex prepared by heating a human IgG solution (10 mg/mL) at 63° C. for 15 minutes (human). In words: batch adsorption from healthy human serum spiked with immune complex (20 µg/mL); supernatant measured with a C1q-CIC kit.
For assay [5] the target is unchanged. The experiment in a line: batch adsorption after γ-ray sterilization (25 kGy) from healthy human serum spiked with immune complex (20 µg/mL); supernatant measured with a C1q-CIC kit.
In assay [6] the target is IgG in healthy human serum (human). In words: batch adsorption: 100 µL adsorbent with 300 µL healthy human serum, 37° C., 2 h; IgG depletion from the supernatant against a saline control.
For assay [7] the target is unchanged. In words: batch adsorption after γ-ray sterilization (25 kGy): 100 µL adsorbent with 300 µL healthy human serum, 37° C., 2 h; IgG depletion from the supernatant.

Residue numbers refer to the chain shown, from its start.

B1: C36 peptide (peptide)
peptide: MTTYKLVINGKTLKGETTTKAVDAETAERAFRQYATDNGVEGMWTYDPATKTFTVTEC
Turning to B1, the Adsorption ratio of β1 adrenoceptor (%) in assay [1] stood at 77.8%. The Adsorption ratio of IgG (%) in assay [2] is 59.7%. Moreover, the Adsorption ratio of rheumatoid factor (%) in assay [3] was 56.3%.

B2: B04 peptide (peptide)
peptide: B1 peptide with Q33K, E41D
Take B2: the Adsorption ratio of an immune complex before sterilization (%) in assay [4] is 92.4%. The Adsorption ratio of an immune complex after sterilization (%) in assay [5] stood at 91.6%.

B3: C15 peptide (peptide)
peptide: B1 peptide with T36N, M43L
With B3, in assay [4], the Adsorption ratio of an immune complex before sterilization (%) was determined as 85.2%. For the same molecule, the Adsorption ratio of an immune complex after sterilization (%) in assay [5] was determined as 84.1%.

B4: CO4 peptide (peptide)
peptide: B1 peptide with Q33K, T36N, M43I
For B4, in assay [6], the Adsorption ratio of IgG before sterilization (%) stood at 97.1%. For the same molecule, the Adsorption ratio of IgG after sterilization (%) in assay [7] was 90.2%.

B5: C24 peptide (peptide)
peptide: B1 peptide with Q33K, T36N, E41D
For the molecule B5, in assay [4], the Adsorption ratio of an immune complex before sterilization (%) was found to be 81.5%. The Adsorption ratio of an immune complex after sterilization (%) in assay [5] is 80.5%.

B6: MG56 peptide (peptide)
peptide: MTTYKLVINGKTLKGETTTKAVDAETAEKAFKQYANDNGVDGVWTYDDATKTFTVTE
Take B6: in assay [3], the Adsorption ratio of rheumatoid factor (%) was determined as 34.4%.
